{"source": "patent US8394641B2", "about": "“Method of hydrolyzing an enzymatic substrate” (Advanced Liquid Logic Inc., priority 2009, dated 2013)", "molecules": {"B1": {"name": "recombinant iduronidase: Recombinant α-L-Iduronidase from R&D Systems, second enzyme of the Hunter's assay (protein, UniProt P35475 28-653, looked up)", "Alpha-L-iduronidase": "APHLVHVDAARALWPLRRFWRSTGFCPPLPHSQADQYVLSWDQQLNLAYVGAVPHRGIKQVRTHWLLELVTTRGSTGRGLSYNFTHLDGYLDLLRENQLLPGFELMGSASGHFTDFEDKQQVFEWKDLVSSLARRYIGRYGLAHVSKWNFETWNEPDHHDFDNVSMTMQGFLNYYDACSEGLRAASPALRLGGPGDSFHTPPRSPLSWGLLRHCHDGTNFFTGEAGVRLDYISLHRKGARSSISILEQEKVVAQQIRQLFPKFADTPIYNDEADPLVGWSLPQPWRADVTYAAMVVKVIAQHQNLLLANTTSAFPYALLSNDNAFLSYHPHPFAQRTLTARFQVNNTRPPHVQLLRKPVLTAMGLLALLDEEQLWAEVSQAGTVLDSNHTVGVLASAHRPQGPADAWRAAVLIYASDDTRAHPNRSVAVTLRLRGVPPGPGLVYVTRYLDNGLCSPDGEWRRLGRPVFPTAEQFRRMRAAEDPVAAAPRPLPAGGRLTLRPALRLPSLLLVHVCARPEKPPGQVTRLRALPLTQGQLVLVWSDEHVGSKCLWTYEIQFSQDGKAYTPVSRKPSTFNLFVFSPDTGAVSGSYRVRALDYWARPGPFSDPVPYLEVPVPRGPPSPGNP"}}, "key": {"[1]": {"target": "T1, acid β-D-glucosidase (Homo sapiens, UniProt P04062)", "T1 sequence (P04062 40-536)": "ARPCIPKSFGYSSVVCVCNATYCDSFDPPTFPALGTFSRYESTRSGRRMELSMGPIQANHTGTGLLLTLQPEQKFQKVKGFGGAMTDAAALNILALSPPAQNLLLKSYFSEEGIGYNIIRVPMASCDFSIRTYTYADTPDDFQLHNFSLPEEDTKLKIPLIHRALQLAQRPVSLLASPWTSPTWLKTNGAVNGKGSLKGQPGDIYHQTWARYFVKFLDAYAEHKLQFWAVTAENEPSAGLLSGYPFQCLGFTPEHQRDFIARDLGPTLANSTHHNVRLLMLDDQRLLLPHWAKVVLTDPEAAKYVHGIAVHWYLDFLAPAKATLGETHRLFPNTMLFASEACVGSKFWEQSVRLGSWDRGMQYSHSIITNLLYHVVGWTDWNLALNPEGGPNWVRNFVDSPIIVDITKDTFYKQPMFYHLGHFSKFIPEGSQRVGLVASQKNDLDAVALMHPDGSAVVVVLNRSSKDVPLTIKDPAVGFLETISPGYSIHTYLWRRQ", "experiment": "Droplet-based enzymatic assay for acid β-D-glucosidase (Gaucher), comparison of substrates", "assay_type": "biochemical", "details": "droplet actuator, Gaucher's disease testing", "text": "The invention provides assay methods for detection of Gaucher and Niemann-Pick diseases on a droplet actuator. Gaucher's disease and Niemann-Pick's disease are caused by deficient activity of the lysosomal enzymes acid β-D-glucosidase and acid sphingomyelinase, respectively. In one embodiment, the invention provides methods for a droplet-based enzymatic assay for acid β-D-glucosidase activity. For example, a multifluoroethylumbelliferyl-β-D-glucoside, such as a 4-pentafluoroethylumbelliferyl-β-D-glucoside, may be used as a substrate fluid in a droplet-based enzymatic assay for acid β-D-glucosidase enzyme activity. The increased number of fluorines makes the substrate fluid more labile to hydrolysis. The excitation/emission wavelengths for 4-pentafluoroethylumbelliferyl-β-D-glucoside are 385/495 nm."}, "[2]": {"target": "iduronate-2-sulfate sulphatase (IDS) (Homo sapiens, UniProt P22304)", "sequence (P22304 34-550)": "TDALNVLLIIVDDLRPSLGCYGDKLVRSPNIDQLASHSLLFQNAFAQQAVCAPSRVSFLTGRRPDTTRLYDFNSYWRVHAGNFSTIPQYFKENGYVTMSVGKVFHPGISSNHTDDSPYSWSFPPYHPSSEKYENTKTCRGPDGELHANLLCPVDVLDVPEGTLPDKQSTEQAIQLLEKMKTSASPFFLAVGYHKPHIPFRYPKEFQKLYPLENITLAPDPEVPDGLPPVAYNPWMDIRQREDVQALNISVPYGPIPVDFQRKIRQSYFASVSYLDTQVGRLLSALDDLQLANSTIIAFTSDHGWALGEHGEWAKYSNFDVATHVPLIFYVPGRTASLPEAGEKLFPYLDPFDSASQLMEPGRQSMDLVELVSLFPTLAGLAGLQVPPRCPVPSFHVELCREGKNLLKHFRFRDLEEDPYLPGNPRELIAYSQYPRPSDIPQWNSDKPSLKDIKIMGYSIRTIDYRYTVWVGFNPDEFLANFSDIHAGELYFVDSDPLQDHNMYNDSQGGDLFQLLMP", "details": "cited from earlier work"}, "[3]": {"experiment": "Recombinant iduronidase standard curve in the presence of BSA on a droplet actuator", "assay_type": "biochemical", "details": "after stop buffer, room temperature", "protocol": "Serial dilutions of recombinant iduronidase were prepared in 0.05 M Na-Acetate/0.05 M Acetic acid buffer, pH 5.0 from a stock of 0.5 mg/mL recombinant iduronidase containing 1 mg/mL molecular biology grade bovine serum albumin (BSA). A substrate fluid was prepared in 0.05 M Na Acetate, pH 5.0 containing 1 mM 4-methylumbelliferyl-α-L-idopyranosiduronic acid (4-MUI) and 100 μM D-saccharic acid 1,4-lactone.\nThe digital microfluidic protocol for the iduronidase standard curve included the following steps: • 1. Mix one 1× droplet of iduronidase and one 1× droplet of substrate fluid to yield a 2× reaction droplet; • 2. Split the 2× reaction droplet into two 1× reaction droplets; • 3. Dispense 11 droplets of stop buffer (sodium carbonate pH 10.1, 0.01% Tween® 20) and combine them with the first set of 1× reaction droplets; • 4. Detect end point fluorescence at 365 nm (t=0); • 5. Incubate the second set of 1× reaction droplets for 1 h at room temperature; • 6. After 1 h of incubation, dispense 11 droplets of stop buffer and combine with the reaction droplets; and • 7. Detect end point fluorescence at 365 nm (t=1 h)."}, "[4]": {"experiment": "Modified Hunter's assay (IDS) on a droplet actuator, recombinant iduronidase as second enzyme", "assay_type": "biochemical, human"}, "[5]": {"details": "stock solution; cited from earlier work"}}, "note": "Where two headings read alike, the source gives them in different places.", "data": [{"molecule": "O=c1cc(C(F)(F)C(F)(F)F)c2ccc(O[C@@H]3O[C@H](CO)[C@@H](O)[C@H](O)[C@H]3O)cc2o1", "note": "[4-pentafluoroethylumbelliferyl-β-D-glucoside]", "values": [{"measurement": "enzymatic activity compared with the 4-methylumbelliferyl-β-D-glucoside substrate fluid", "setting": "[1]", "result": "as much as eight-fold greater"}]}, {"molecule": "Cl", "note": "[chloride]", "values": [{"measurement": "IDS activity inhibited", "setting": "[2]; 30 mM chloride", "result": 50, "unit": "%"}, {"measurement": "IDS activity inhibited", "setting": "[2]; 250 mM chloride", "result": "completely inhibited"}]}, {"molecule": "B1", "values": [{"measurement": "Relative fluorescence at t = 1 hrs incubation (Rfu)", "setting": "[3]; Idu 0.001 μg/mL", "result": 34.6948, "unit": "Rfu"}, {"measurement": "Relative fluorescence at t = 1 hrs incubation (Rfu)", "setting": "[3]; Idu 0.01 μg/mL", "result": 179.1927, "unit": "Rfu"}, {"measurement": "Relative fluorescence at t = 1 hrs incubation (Rfu)", "setting": "[3]; Idu 0.1 μg/mL", "result": 999.3997, "unit": "Rfu"}, {"measurement": "Relative fluorescence at t = 1 hrs incubation (Rfu)", "setting": "[3]; Idu 1 μg/mL", "result": 7427.665, "unit": "Rfu"}, {"measurement": "concentration dependence of Hunter's assay activity", "setting": "[4]; 1 μg/mL vs 10 μg/mL, eight normal plasma samples", "result": "higher activity at 10 μg/mL"}, {"measurement": "liberation of 4-MU from 4-methylumbelliferyl-α-L-iduronic acid in the IDS assay", "setting": "[4]; 1 μg/ml, data not shown", "result": "sufficient"}, {"measurement": "specific activity of stock enzyme", "setting": "[5]", "result": "> 7.5", "unit": "nmol/min/µg"}]}]}
